{"source": "paper doi:10.1101/2023.09.14.557733", "molecular_target": "FgSte2-yellow fluorescent protein (F. graminearum)", "assay": "FRET or BRET", "data": [{"substance": "FgSte3-Nano luciferase (receptor)", "values": [{"measurement": "BRET50 (galactose concentration for donor induction)", "value": 2, "unit": "% galactose"}, {"measurement": "mBRET", "value": 110, "unit": "mBRET"}, {"measurement": "netBRET", "value": "> 0.1", "unit": "netBRET"}]}]}
